Assay results as given in patent publication US20180196058A1.

Biological target: Recombinant human IFN-gamma (eBioscience) (human) (UniProt P01579)
Experiment: sandwich on beads, LC MS/MS of released iCOREs; IFN-gamma iCORE peak against the peak of the iCORE on the anti-TNF-alpha detection antibody

Chain of Recombinant human IFN-gamma (eBioscience) (human) (P01579 24-166 limits assumed): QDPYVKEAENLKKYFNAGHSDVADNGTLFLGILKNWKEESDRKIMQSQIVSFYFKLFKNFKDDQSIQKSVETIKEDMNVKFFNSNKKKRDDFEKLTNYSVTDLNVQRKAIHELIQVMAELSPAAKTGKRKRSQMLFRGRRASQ

- signal to noise: 10
Substance: iCORE-labeled detection antibody against human IFN-gamma, clone 4S.B3 (eBioscience)
